B1: MutS protein homolog 5 (Saccharomyces cerevisiae), Q12175 (parent)
chain: MSHEWLISASETMRSIGNGEGLRDKGAVVANNDGEFNEGDTNREEDSSTIFSFDFDEEIVMCIDFSGGKLGCSILDYHTKTLKAFDQDYVVNKTTISSHDLIDDADMSSNDISLLLGLLIMEANPTVCLVPARLEDWIFDYIKTKCDEINCRLELQPIKRFKKWDLLQSLQLRGHDNQTILNDILSNSKFTTTVTLGTVGCILANHEQLGEYNDSTASSNMVTGRLVQNAFEDVIHGIRYIDIRDRMVLDENTISALHIFPTAHKLGHDKMMRNGFFSVFELFNQVSSDYARRILKSWLINPLTNKKRIETRYSIIRTLLDKQNAIIFSDLSQSIKRCPDAFGFINQLRSGKSTLGTWSKVASFLEKGIAIFQLVSSLKLGSDEANILHDIKNKVDISALKECLRKVETVIDFDTSRDTKTLTINTGVDNRLDECRNIYNHLEGILLDVARETQIFLLNTMPQEDCKTTKSLEKLVNAVYIPQLGYLVTISVLMEPLLDGIPNLQWEEIFRSSENIYFKNGRVLELDETYGDIYGAISDFEIEILFSLQEQILRRKTQLTAYNILLSELEILLSFAQVSAERNYAEPQLVEDECILEIINGRHALYETFLDNYIPNSTMIDGGLFSELSWCEQNKGRIIVVTGANASGKSVYLTQNGLIVYLAQIGCFVPAERARIGIADKILTRIRTQETVYKTQSSFLLDSQQMAKSLSLATEKSLILIDEYGKGTDILDGPSLFGSIMLNMSKSEKCPRIIACTHFHELFNENVLTENIKGIKHYCTDILISQKYNLLETAHVGEDHESEGITFLFKVKEGISKQSFGIYCAKVCGLSRDIVERAEELSRMINRGDDVVQQCGNLTEKEMREFQKNQEIVKKFLSWDLDLETTTTSENLRLKLKNFLR
partner: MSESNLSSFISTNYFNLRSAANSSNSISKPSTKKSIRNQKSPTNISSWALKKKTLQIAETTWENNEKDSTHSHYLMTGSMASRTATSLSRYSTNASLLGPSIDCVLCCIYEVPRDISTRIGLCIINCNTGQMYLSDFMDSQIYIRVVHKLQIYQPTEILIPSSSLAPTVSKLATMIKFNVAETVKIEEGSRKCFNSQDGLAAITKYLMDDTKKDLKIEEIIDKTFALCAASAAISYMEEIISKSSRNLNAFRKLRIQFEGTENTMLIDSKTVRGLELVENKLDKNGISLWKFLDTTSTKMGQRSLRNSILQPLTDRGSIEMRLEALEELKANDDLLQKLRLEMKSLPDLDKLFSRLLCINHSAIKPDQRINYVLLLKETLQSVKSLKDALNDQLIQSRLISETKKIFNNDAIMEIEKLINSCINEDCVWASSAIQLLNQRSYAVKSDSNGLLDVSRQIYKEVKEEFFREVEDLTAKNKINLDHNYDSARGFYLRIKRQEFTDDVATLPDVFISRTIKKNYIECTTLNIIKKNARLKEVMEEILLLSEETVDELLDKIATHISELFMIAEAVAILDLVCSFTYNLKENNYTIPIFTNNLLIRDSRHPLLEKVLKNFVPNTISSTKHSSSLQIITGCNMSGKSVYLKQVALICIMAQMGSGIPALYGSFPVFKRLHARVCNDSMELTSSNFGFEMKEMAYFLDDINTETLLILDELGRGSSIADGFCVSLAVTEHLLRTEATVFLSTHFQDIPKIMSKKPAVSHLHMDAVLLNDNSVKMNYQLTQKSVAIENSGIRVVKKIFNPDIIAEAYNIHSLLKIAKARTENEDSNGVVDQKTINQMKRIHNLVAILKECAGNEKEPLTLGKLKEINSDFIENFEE

The test covers variants of B1. The settings on record: with msh4_yeast MSH4, P40965.
A644V: the “effect of a mutation on the interaction” value is reported as “with no effect”.
Take G648R: the “effect of a mutation on the interaction” value is listed as “with no effect”.
In the case of G821D it was “with no effect”; in that of G643D, “with no effect”.

The values above are taken from IntAct's records for PubMed 9374523.
